Reference: PMC3937676, “Dynamics of Inter-heavy Chain Interactions in Human Immunoglobulin G (IgG) Subclasses Studied by Kinetic Fab Arm Exchange^([image sbox.jpg])” (The Journal of Biological Chemistry, 2014)

Tests used:
[1] = target: G3*01 Fc fragment (CH2CH3 of IgG3 allele IGHG3*01, G3m(b*), with an IgG4 hinge) (human); assay: FRET or BRET; real-time half-molecule exchange of Fc fragments; 4 μg/ml Fc-488 and Fc-594 in PBS-P, each 1 h at 37 °C with 3 mM DTT, then mixed in equal volumes, 37 °C (IgG4-Fc-V397M/K392N at 10 μg/ml final); kobs taken as the CH3-CH3 dissociation rate (dimer to single chains)
[2] = target: human IgG1 antibody, half-molecule (heavy chain plus light chain) after reduction of the hinge disulfide bonds (human); assay: FRET or BRET; real-time Fab arm (half-molecule) exchange of whole IgG; equimolar DyLight488- and DyLight594-labelled antibody, inter-heavy chain disulfide bonds fully reduced with DTT, 37 °C; first-order exponential fit; kobs taken as the CH3-CH3 dissociation rate (dimer to half-molecules)
[3] = target: human IgG2 antibody, half-molecule (heavy chain plus light chain) after reduction of the hinge disulfide bonds (human); assay: SEC; fluorescence-assisted HPLC; reduced (10 mM DTT) and alkylated (iodoacetamide) IgG, serial 4-fold dilutions 0.001-300 nM half-molecules with a small fixed dose of the DyLight-488 labelled equivalent, PBS with 0.1 mg/ml certolizumab pegol and 0.02% Tween 20, 37 °C up to 3 days; Superdex 200; dimer to half-molecules
[4] = target: human IgG2 antibody, half-molecule (heavy chain plus light chain) after reduction of the hinge disulfide bonds (human); assay: FRET or BRET; real-time Fab arm (half-molecule) exchange of whole IgG; equimolar DyLight488- and DyLight594-labelled antibody, inter-heavy chain disulfide bonds fully reduced with DTT, 37 °C; first-order exponential fit; kobs taken as the CH3-CH3 dissociation rate (dimer to half-molecules)
[5] = target: human IgG3 antibody (IGHG3*01), half-molecule (heavy chain plus light chain) after reduction of the hinge disulfide bonds (human); assay: as above
[6] = target: human IgG4 antibody, half-molecule (heavy chain plus light chain) after reduction of the hinge disulfide bonds (human); assay: as above
[7] = target: the molecule itself; assay: FRET or BRET; real-time half-molecule exchange of Fc fragments; 4 μg/ml Fc-488 and Fc-594 in PBS-P, each 1 h at 37 °C with 3 mM DTT, then mixed in equal volumes, 37 °C (IgG4-Fc-V397M/K392N at 10 μg/ml final); kobs taken as the CH3-CH3 dissociation rate (dimer to single chains)
[8] = target: the molecule itself; assay: FRET or BRET; equilibrium; 2-fold dilutions of equimolar Fc-488 and Fc-594, 2 h at 37 °C with 3 mM DTT; F620/F588 against total half-molecules; homodimerization model; dimer to single chains

## G3*01 Fc fragment (CH2CH3 of IgG3 allele IGHG3*01, G3m(b*), with an IgG4 hinge) (domain or fragment)
[1]
  fold faster dissociation than G3*06: > 10 fold

## human IgG1 antibody, half-molecule (heavy chain plus light chain) after reduction of the hinge disulfide bonds
[2]
  half-life of dissociation (t1/2): 384 h
  koff: 5e-07 s⁻¹

## human IgG2 antibody, half-molecule (heavy chain plus light chain) after reduction of the hinge disulfide bonds
[3]
  Kd: 23 pM
[4]
  half-life of dissociation (t1/2): 6.5 h
  koff: 3e-05 s⁻¹

## human IgG3 antibody (IGHG3*01), half-molecule (heavy chain plus light chain) after reduction of the hinge disulfide bonds
[5]
  half-life of dissociation (t1/2): 0.467 h
  koff: 0.0004 s⁻¹

## human IgG4 antibody, half-molecule (heavy chain plus light chain) after reduction of the hinge disulfide bonds
[6]
  half-life of dissociation (t1/2): 6 min
  koff: 0.0018 s⁻¹

B1: G2-M397V Fc fragment (CH2CH3 of IgG2 with M397V, IgG4 hinge) (domain or fragment)
chain: ESKYGPPCPSCPAPPVAGPSVFLFPPKPKDTLMISRTPEVTCVVVDVSHEDPEVQFNWYVDGVEVHNAKTKPREEQFNSTFRVVSVLTVVHQDWLNGKEYKCKVSNKGLPAPIEKTISKTKGQPREPQVYTLPPSREEMTKNQVSLTCLVKGFYPSDISVEWESNGQPENNYKTTPPVLDSDGSFFLYSKLTVDKSRWQQGNVFSCSVMHEALHNHYTQKSLSLSPGK
modifications: DyLight 488 or DyLight 594 amine reactive dye (average degree of labeling ~2 for Fc fragments); hinge disulfide bonds reduced with DTT
[7]
  koff: < 1e-06 s⁻¹

B2: IgG4-V397M/K392N Fc fragment (domain or fragment)
chain: ESKYGPPCPSCPAPEFLGGPSVFLFPPKPKDTLMISRTPEVTCVVVDVSQEDPEVQFNWYVDGVEVHNAKTKPREEQFNSTYRVVSVLTVLHQDWLNGKEYKCKVSNKGLPSSIEKTISKAKGQPREPQVYTLPPSQEEMTKNQVSLTCLVKGFYPSDIAVEWESNGQPENNYNTTPPMLDSDGSFFLYSRLTVDKSRWQEGNVFSCSVMHEALHNHYTQKSLSLSLGK
modifications: DyLight 488 or DyLight 594 amine reactive dye (average degree of labeling ~2 for Fc fragments); hinge disulfide bonds reduced with DTT
[8]
  Kd: 2.3 µM
[7]
  koff: 0.16 s⁻¹

B3: G3*03 Fc fragment (CH2CH3 of IgG3 allele IGHG3*03, G3m(c3c5*), with an IgG4 hinge) (domain or fragment)
chain: ESKYGPPCPSCPAPELLGGPSVFLFPPKPKDTLMISRTPEVTCVVVDVSHEDPEVQFKWYVDGVEVHNAKTKPREEQYNSTFRVVSVLTVLHQDWLNGKEYKCKVSNKALPAPIEKTISKTKGQPREPQVYTLPPSREEMTKNQVSLTCLVKGFYPSDIAVEWESSGQPENNYNTTPPVLDSDGSFFLYSRLTVDKSRWQEGNVFSCSVMHEALHNRFTQKSLSLSPGK
modifications: DyLight 488 or DyLight 594 amine reactive dye (average degree of labeling ~2 for Fc fragments); hinge disulfide bonds reduced with DTT
[7]
  fold faster dissociation than IgG4 (m17): ~15 fold
